Laboratory results reported in patent US11542537B2, “High-purity steviol glycosides” (PureCircle Sdn Bhd, priority 2012, dated 2023).

B1: S115N01 G2: UDP-glycosyltransferase, Avena strigosa, SEQ ID 4 (protein, listed as Avena strigosa)
chain: MAVKDEQQSPLHILLFPFLAPGHLIPIADMAALFASRGVRCTILTTPVNAAIIRSAVDRANDAFRGSDCPAIDISVVPFPDVGLPPGVENGNALTSPADRLKFFQAVAELREPFDRFLADNHPDAVVSDSFFHWSTDAAAEHGVPRLGFLGSSMFAGSCNESTLHNNPLETAADDPDALVSLPGLPHRVELRRSQMMDPKKRPDHWALLESVNAADQKSFGEVFNSFHELEPDYVEHYQTTLGRRTWLVGPVALASKDMAGRGSTSARSPDADSCLRWLDTKQPGSVVYVSFGTLIRFSPAELHELARGLDLSGKNFVWVLGRAGPDSSEWMPQGFADLITPRGDRGFIIRGWAPQMLILNHRALGGFVTHCGWNSTLESVSAGVPMVTWPRFADQFQNEKLIVEVLKVGVSIGAKDYGSGIENHDVIRGEVIAESIGKLMGSSEESDAIQRKAKDLGAEARSAVENGGSSYNDVGRLMDELMARRSSVKVGEDIIPTNDGL
B2: S115N01 A1: UDP-glucosyltransferase Os03g0702500, Oryza sativa Japonica Group, SEQ ID 3 (protein, listed as Oryza sativa)
chain: MDDAHSSQSPLHVVIFPWLAFGHLLPCLDLAERLAARGHRVSFVSTPRNLARLPPVRPELAELVDLVALPLPRVDGLPDGAEATSDVPFDKFELHRKAFDGLAAPFSAFLDTACAGGKRPDWVLADLMHHWVALASQERGVPCAMILPCSAAVVASSAPPTESSADQREAIVRSMGTAAPSFEAKRATEEFATEGASGVSIMTRYSLTLQRSKLVAMRSCPELEPGAFTILTRFYGKPVVPFGLLPPRPDGARGVSKNGKHDAIMQWLDAQPAKSVVYVALGSEAPMSADLLRELAHGLDLAGTRFLWAMRKPAGVDADSVLPAGFLGRTGERGLVTTRWAPQVSILAHAAVCAFLTHCGWGSVVEGLQFGHPLIMLPILGDQGPNARILEGRKLGVAVPRNDEDGSFDRGGVAGAVRAVVVEEEGKTFFANARKLQEIVADREREERCIDEFVQHLTSWNELKNNSDGQYP
B3: UGTLB: Lycium barbarum UDP-glucosyltransferase GI_209954733, SEQ ID 10, E. coli lysate (protein, listed as Escherichia coli)
chain: MGTEVTVHKNTLRVLMFPWLAYGHISPFLNVAKKLVDRGFLIYLCSTAINLKSTIKKIPEKYSDSIQLIELHLPELPELPPHYHTTNGLPPHLNHTLQKALKMSKPNFSKILQNLKPDLVIYDLLQQWAEGVANEQNIPAVKLLTSGAAVLSYFFNLVKKPGVEFPFPAIYLRKNELEKMSELLAQSAKDKEPDGVDPFADGNMQVMLMSTSRIIEAKYIDYFSGLSNWKVVPVGPPVQDPIADDADEMELIDWLGKKDENSTVFVSFGSEYFLSKEDREEIAFGLELSNVNFIWVARFPKGEEQNLEDALPKGFLERIGDRGRVLDKFAPQPRILNHPSTGGFISHCGWNSVMESVDFGVPIIAMPIHLDQPMNARLIVELGVAVEIVRDDYGKIHREEIAEILKDVIAGKSGENLKAKMRDISKNLKSIRDEEMDTAAEELIQLCKNSPKLK

Tests used:
Format in all cases: biochemical
[1] = Catalytic test of in-vitro expressed UDP-glucosyltransferases, Rebaudioside A to Rebaudioside D (HPLC CAD); settings: 0.5 mM Rebaudioside A, 30° C., T24h sample; for Steviol glycoside conversion in reaction mixture: Reb A: remaining substrate
Experimental: 18 μL of plasmid solution (containing approximately 1.5 μg of plasmid) was used for in-vitro expression according to the Promega S30 T7 High-Yield Protein Expression System (ref: L1110) kit. The expression medium was produced as follows:
The prepared expression medium mix was added to the plasmid solution and the solution was allowed to incubate at 30° C. for 3 hours while mixing the mixture every 45 minutes. 5 μL of the mixture was frozen whereas the remainder was used for the catalytic test for the conversion of Rebaudioside A to Rebaudioside D.
430 μL of a reaction mixture containing 0.5 mM Rebaudioside A, 3 mM MgCl2, 50 mM phosphate buffer (pH7.2) and 2.5 mM UDP-glucose was added to a 1.5 mL sterile microtube. 52 μL of the enzyme expression medium was added and the resulting mixture was allowed to react at 30° C. for 24 hours. 125 μL samples were taken after 2 hours, 16 hours and 24 hours and added to a 115 μL of 60% methanol and 10 μL of 2 N H2SO4. The quenched sample was centrifuged at 18,000 g for 2 minutes at RT. 200 μL was transferred to an HPLC vial and analyzed.
The HPLC assay was performed as follows:
430 μL of a reaction mixture containing 0.5 mM Rebaudioside A, 3 mM MgCl2, 50 mM phosphate buffer (pH7.2) and 2.5 mM UDP-glucose was added to a 1.5 mL sterile microtube. 52 μL of the enzyme expression medium was added and the resulting mixture was allowed to react at 30° C. for 24 hours. 125 μL samples were taken after 2 hours, 16 hours and 24 hours and added to a 115 μL of 60% methanol and 10 μL of 2 N H2SO4. The quenched sample was centrifuged at 18,000 g for 2 minutes at RT.
The HPLC assay was performed as described in EXAMPLE 20.

[2] = LCMS of Stevioside conversion products with UGTSL, UGTSL2, UGTLB; settings: UGTSL2 2 hrs, UGTLB 2 hrs, UGTSL 22 hrs
Experimental: (§1) Conversion of stevioside with UGTSL and UGTSL2 was conducted in similar manner to Example 28, and the conversion of rubusoside with UGTSL and UGTSL2 was conducted similarly to Example 29. Conversions of rubusoside and stevioside with UGTLB was conducted similarly to Example 32.
(§2) The reaction mixtures were analyzed by LCMS to determine all reaction products.

[3] = LCMS of Rubusoside conversion products with UGTSL, UGTSL2, UGTLB; settings: UGTSL2 2 hrs, UGTLB 5 hrs, UGTSL 45 hrs
Experimental: as §1, §2

Molecule | Steviol glycoside conversion in reaction mixture: Reb D [1] [% area] | Steviol glycoside conversion in reaction mixture: Reb A [1] [% area] | LC-MS, peak area ratio (%) Reb E [2] [%] | LC-MS, peak area ratio (%) Stev [2] [%] | LC-MS, peak area ratio (%) Unknown peak #2 (MW966) RT = 26.50 min [2] [%] | LC-MS, peak area ratio (%) Reb D [3] [%] | LC-MS, peak area ratio (%) Reb E [3] [%] | LC-MS, peak area ratio (%) Rub [3] [%] | LC-MS, peak area ratio (%) Unknown peak #1 (MW804) RT 30.70 min [3] [%] | LC-MS, peak area ratio (%) Unknown peak #2 (MW804) RT 49.50 min [3] [%] | LC-MS, peak area ratio (%) Unknown peak #3 (MW804) RT 50.40 min [3] [%]
B1 | 0.6 | 99.4 | – | – | – | – | – | – | – | – | –
B2 | 2.1 | 96.7 | – | – | – | – | – | – | – | – | –
B3 | – | – | 3.12 | 43.11 | 53.78 | 1.29 | 9.21 | 13.49 | 4.07 | 66.67 | 5.27
